The values that follow come from paper PMC3296934 (Frontiers in Molecular Neuroscience, 2012).

B1: GST-RK fragment F125-K175 (domain or fragment)
chain: FLDAETVARARAGAGDGLFQPLLRAVLAHLGQAPFQEFLDSLYFLRFLQWK
B2: GST-RK fragment M1-L102 (domain or fragment)
chain: MDFGSLETVVANSAFIAARGSFDASSGPASRDRKYLARLKLPPLSKCEALRESLDLGFEGMCLEQPIGKRLFQQFLRTHEQHGPALQLWKDIEDYDTADDAL
B3: GST fusion of the RK amino terminal region (N-RK: M1-G183) (domain or fragment)
chain: MDFGSLETVVANSAFIAARGSFDASSGPASRDRKYLARLKLPPLSKCEALRESLDLGFEGMCLEQPIGKRLFQQFLRTHEQHGPALQLWKDIEDYDTADDALRPQKAQALRAAYLEPQAQLFCSFLDAETVARARAGAGDGLFQPLLRAVLAHLGQAPFQEFLDSLYFLRFLQWKWLEAQPMG
B4: GST-RK fragment L102-G183 (domain or fragment)
chain: LRPQKAQALRAAYLEPQAQLFCSFLDAETVARARAGAGDGLFQPLLRAVLAHLGQAPFQEFLDSLYFLRFLQWKWLEAQPMG

For this assay, the target named is calmodulin (bovine, UniProt P62157 1-149). Kind of assay: SPR.
On to B1, for which binding was characterised by a dissociation constant (Kd) of 17 µM.

B2 yielded an equilibrium dissociation constant (Kd) of 54 µM. Consider B3, for which binding was put at a Kd of 63 µM.

B4 registered a Kd of 23 µM.
